Measured values published in IntAct's records for PubMed 12860405.

B1: Interleukin-1 receptor-associated kinase 1 (Homo sapiens), P51617 (parent)
chain: MAGGPGPGEPAAPGAQHFLYEVPPWVMCRFYKVMDALEPADWCQFAALIVRDQTELRLCERSGQRTASVLWPWINRNARVADLVHILTHLQLLRARDIITAWHPPAPLPSPGTTAPRPSSIPAPAEAEAWSPRKLPSSASTFLSPAFPGSQTHSGPELGLVPSPASLWPPPPSPAPSSTKPGPESSVSLLQGARPFPFCWPLCEISRGTHNFSEELKIGEGGFGCVYRAVMRNTVYAVKRLKENADLEWTAVKQSFLTEVEQLSRFRHPNIVDFAGYCAQNGFYCLVYGFLPNGSLEDRLHCQTQACPPLSWPQRLDILLGTARAIQFLHQDSPSLIHGDIKSSNVLLDERLTPKLGDFGLARFSRFAGSSPSQSSMVARTQTVRGTLAYLPEEYIKTGRLAVDTDTFSFGVVVLETLAGQRAVKTHGARTKYLKDLVEEEAEEAGVALRSTQSTLQAGLAADAWAAPIAMQIYKKHLDPRPGPCPPELGLGLGQLACCCLHRRAKRRPPMTQVYERLEKLQAVVAGVPGHSEAASCIPPSPQENSYVSSTGRAHSGAAPWQPLAAPSGASAQAAEQLQRGPNQPVESDESLGGLSAALRSWHLTPSCPLDPAPLREAGCPQGDTAGESSWGSGPGSRPTAVEGLALGSSASSSSEPPQIIINPARQKMVQKLALYEDGALDSLQLLSSSSLPGLGLEQDRQGPEESDEFQS
partner: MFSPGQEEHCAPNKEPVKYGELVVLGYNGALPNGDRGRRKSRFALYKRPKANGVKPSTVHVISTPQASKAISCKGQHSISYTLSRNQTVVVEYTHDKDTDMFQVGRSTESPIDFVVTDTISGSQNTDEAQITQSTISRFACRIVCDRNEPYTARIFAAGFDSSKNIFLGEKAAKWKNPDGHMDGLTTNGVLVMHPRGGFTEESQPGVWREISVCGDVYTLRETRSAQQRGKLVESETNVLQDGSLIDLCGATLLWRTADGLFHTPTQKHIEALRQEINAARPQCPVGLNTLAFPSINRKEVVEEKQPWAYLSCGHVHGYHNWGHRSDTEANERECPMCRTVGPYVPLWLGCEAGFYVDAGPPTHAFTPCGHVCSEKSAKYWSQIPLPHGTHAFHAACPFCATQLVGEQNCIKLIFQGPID
B2: Interleukin-1 receptor-associated kinase 4 (Homo sapiens), Q9NWZ3 (parent)
chain: MNKPITPSTYVRCLNVGLIRKLSDFIDPQEGWKKLAVAIKKPSGDDRYNQFHIRRFEALLQTGKSPTSELLFDWGTTNCTVGDLVDLLIQNEFFAPASLLLPDAVPKTANTLPSKEAITVQQKQMPFCDKDRTLMTPVQNLEQSYMPPDSSSPENKSLEVSDTRFHSFSFYELKNVTNNFDERPISVGGNKMGEGGFGVVYKGYVNNTTVAVKKLAAMVDITTEELKQQFDQEIKVMAKCQHENLVELLGFSSDGDDLCLVYVYMPNGSLLDRLSCLDGTPPLSWHMRCKIAQGAANGINFLHENHHIHRDIKSANILLDEAFTAKISDFGLARASEKFAQTVMTSRIVGTTAYMAPEALRGEITPKSDIYSFGVVLLEIITGLPAVDEHREPQLLLDIKEEIEDEEKTIEDYIDKKMNDADSTSVEAMYSVASQCLHEKKNKRPDIKKVQQLLQEMTAS
partner: B1 partner

Variants of: B1
Conditions: with peli2_human PELI2, Q9HAT8

Row | Variant | effect of a mutation on the interaction
1 | K239S | disrupting interaction

Variants of: B2
Conditions: with peli2_human PELI2, Q9HAT8

Row | Variant | effect of a mutation on the interaction
2 | K213A | disrupting interaction
